Measured values from publication doi:10.64898/2025.12.30.697104.
Read-outs that look alike come from different tables or passages of the source.

Columns and labels:
[1] = target: Trichoplusia ni (Tni) beta-tubulin (Trichoplusia ni (endogenous in Tni cells)); assay: cryo-EM structure
[2] = target: Trichoplusia ni (Tni) beta-tubulin (Trichoplusia ni (endogenous in Tni cells)); assay: cryo-EM structure; remark: listed apart in the source

- stoichiometry N [1]: 2
- stoichiometry N [2]: 2
Substance: Trichoplusia ni (Tni) beta-tubulin (natural protein)
